Measured values reported in the DeepSol protein solubility set.

Test: soluble on expression in E. coli; label from the status in PepcDB or PDB records

MAHHHHHHMALYIIGLGLGDERDVSVRGKELIEMSDVVYLESYTSVLFVSKNALEEFYKKNIKEVDRNFAEENCEEILEEAVNKKVSFLVVGDPLCATTHHDIILRAKKKNINVQVIHNASIMSAIGESGMQLYNFGQTVSIPYFEETYKPTSFYDKIKVNLDNNFHTLCLLDIKVKERTIENLMKNKNIYEPPRYMTINEAIEQLLYCEEVHKKNVITDNTRGIAIVRIGSNSQQIVSGNLLTLKTIKYNDPLHSLIICAPTLHDVEREYFDMYMHK
soluble on expression in E. coli: not soluble

MAEAESVSVDGWDFSWLDGRATEQRPSWGYQRLMGERLARANAALDIQTGGGEVLAGAMTMPPVMVATESWPPNVAKATALLHPLGAVVVADADEPPLPFAEGAFDLVTSRHPATVWWDEIARVLRPGGTYFSQHVGHASVFELVEYFLGPQPTRPASSSRPANAADSAHRLRPVEGLPDDVGVPGVLGGLPDDVEQDPARGPA
soluble on expression in E. coli: not soluble

MPTKGRVFVLGHSQDKDCVSRETGRRTTSITVPRDKCGVETVQHGKGAGYTSSVNIVISFHDKFLTKVDRAYNITCLYAPTGDVVSYALTVQPSLLKDIQVLAEQPSCEYEVFDVRTRRPAEIVHVNAPLEHVWTCDGTNLDLFCMTVHDCVINEGKSKRRSKIIDSEGCSLDTTRLPNLRYENNKLSARVMSKAFRFGDDVAVEFECNVRLDLRNGTSCPRPRC
soluble on expression in E. coli: not soluble

MYQVITMYGDNEPWWFFDDWQEDIVQEKTFDNLTDAETYYVEVWQKLSQNYTYVNTKPNYLTAFWNDGEERWCEECDEDLQQYFGLALLENHHAVTFENKAEFTTISNHFGKTKFCKRKVILEHHHHHH
soluble on expression in E. coli: soluble

MGSDKIHHHHHHMKNYTPIQTETTQNHSKSAGMNNQTEKVLDFDECITFLNKKGKELFGLKFFIDPADYEVVYKILIYIIKDERNAQRHKISLDKGIMLSGPVGCGKTTLMNLMNHIIPVANRYIVRSCRLVSYDFISQGYDAIHKYSYQSFKNNKKVVTPQAWCFDDLGTESSLKYYGNECNVMAEILLSRYDLFIEKDMVTHITTNLVAEEIESFYGVRVRSRMREMFNLISFDRNSKDKRV
soluble on expression in E. coli: not soluble

MSLIRVSSAVQRHAQKLIVLFSLLFGASLLMSDNGFATDIKNTNASSPVNSESTKPTKAGEVKNVVRFAKTGSFDNDTVVRLARQLAKKPYVALKDPLPESLANISYDEYRDIRFKPDSAVWKADGLPYQMQLFHRGFFFQDLIEIALVEGNQATHLSYDPNMFTAGEVLQQNLPTEDIGYSGLRVHYPLNSPSYFDELFVFQGASYFRALGKGNAYGLSARGLAIKTADPAGEEFPIFRAFWVEKPNYDTNLIVVHALLDSPSVSGAYRFSIRPGENTRMDVEAVLFPRVELSKVGLAPATSMFMHSPNGREKTDDFRPSVHDSDGLLMINGRGERLWRPLANPSTLQVSAFMDNSPQGFGLMQRERDYANYQDLEAHYEKRPSLWVEPVGNWGPGAVVLTEIPTQSEIHDNIVAFWKPAQPLAAGSEYRFSYHLNWGAQPEANPQAITVSRTASGRADIAKPTPKRLFVIDYQVQGAKPAQMPEPKVRSNAGVISNVVLRDNPANNGYRLSFEFDPGEVTLAELRAELTLQEARPVETWLYRWTLEGGSHHHHHH
soluble on expression in E. coli: soluble

MGGSHHHHHHGMASALERYAAALEEVADGARQQERHYQLLSALQSLVKELPSSFQQRLSYTTLSDLALALLDGTVFEIVQGLLEIQHLTEKSLYNQRLRLQNEHRVLRQALRQKHQEAQQACRPHNLPVVQAAQQRELEAVEHRIREEQRAMDQKIILELDRKVADQQSTLEKAGVAGFYVTTNPQELMLQMNLLELIRKLQQRGCRAGNAALGLGGPWQSPAAQCDQKGSPVPP
soluble on expression in E. coli: not soluble

MRLFAIVLLCLVLATCASHIPSARVTHPASAGLPGLQGFQLMPPEQAVDALPYRNRYPLINAELRQGLAAHGYHESATPQFRVYYWLALRDAPLEFRPDLPPTSGMGPYLAIHRLRDETGTLRVRLVDLEERVLWEGMVSTGLSPARANPEQLELAVGALLRQLPRAR
soluble on expression in E. coli: not soluble

MARIRVVQGDITEFQGDAIVNAANNYLKLGAGVAGAILRKGGPSIQEECDRIGKIRVGEAAVTGAGNLPVRYVIHAAVLGDEPASLETVRKATKSALEKAVELGLKTVAFPLLGTGVGGLPVEAVARVMLEEIKKAPDTLEVTLYGYREEDAEAIRRAL
soluble on expression in E. coli: soluble

MMDCRLGCGACCIAPSISSPIPGMPNGKPAGVRCVQLNEDNLCQLFGRPERPKVCHDFKACPVVCGKTNQQALANLTELERLTLEHHHHHH
soluble on expression in E. coli: not soluble

MKKLNFSELNWINTPENFSITENELVIHTSPDTDFWRGTYYGLEYNNAPGIVMRSEERFWTLKSKVAFESNMFFDQCGMLIYIDDNNWMKSGIEYQSNGYQQLFSVVTNNGFSDWAMTNLDRVTQTMYYRLSRRGNDFLLEHSADGKIFNMMRMFHMFQAYTTVQFGFFASSPGDSSFAAHFSEIEWTECLWDAHTSSRFLEHHHHHH
soluble on expression in E. coli: not soluble

GVGRLDDLKRSPLFQNVPEDAMREALKVVTERNFQPDELVVEQDAEGEALHLVTTGVVRVSRVSLGGRERVLGDIYAPGVVGETAVLAHQERSASVRALTPVRTLMLHREHFELILRRHPRVLWNLAEMLARRVTFLNDELIAFGQNTEAALTHVFANLYRQRLAAGVPQPEVLPLGTQDIMARTSSSRETVSRVLKRLEAHNILEVSPRSVTLLDLAALEALSFEGAETD
soluble on expression in E. coli: soluble

AIAADSAVRGPPGMGGTSTDNMDSVVQGDRRPGSHKGFVEEMRFVAMRLHTRDQAKEGTLEESALPIQEWQPSQQDYLQFLVDSKHVYDFFENFMNQSQDNMFVNFRRTGLERVSALEEDLDWFRQRGFSIPKPEKPGVAYVEYLQSLVQDKPHALLCHWYNFYFAHTAGGRMIGRLMSKLLFDGHVFEFYKWEGDVKQILDQVRVKIDETARDWPREVKDECLKETGLSFSYSGTILGHLAKRG
soluble on expression in E. coli: soluble

MAKSRTIYVCAECGGTSLKWQGKCPHCSAWNTLEETVESAAPSAGGHRYAPLAAASPVRSLSEIEARETPRQPTGLDEFDRVLGGGLVAGAVVLIGGDPGIGKSTLLLQALASLSATTKVLYVTGEESAEQVALRARRLGLQTGNVDLLAEIRLEAIQAAVSEQKPTVAVIDSIQTLYSGELTAAPGSVSQVRECAAQLTRLAKQTGIAIVMIGHVTKDGALAGPRVLEHIVDTVLYFEGDTHSSFRLVRAFKNRFGAVNELGVFAMTDRGLRGVANPSALFLSQHQQQVAGSCVLATQEGTRPLLVEVQALVDTSHAPNPRRLTVGLEGNRLAMLLAVMHRHAGVSTYDQDVFVNAVGGVRITEPAADLPVLLAIMSSLRDKPLPAGLVAFGEIGLAGEIRPAPRGQERLREAAKLGFSVALIPKANAPRQPIEGLEIWAVDRLDAALDKLRLEHHHHHH
soluble on expression in E. coli: soluble

MGSDKIHHHHHHMLEPQDQKKLDELFSSMQEANGCFLGYPFAKDFDYEPLWRFMSLTGNNLGDPFEPGTYRVNSHAFECDVVDFFARLFRACSCEVWGYVTNGGTEGNIYGLYLARELYPNAVAYFSQDTHYSVSKGVRLLRLEHSVVRSQSNGEINYDDLAQKATRYRTRPAVVVANIGTTMKEGKDDTLKIRAVLHDVGISAIYVHSDAALCGPYAPLLNPKPAFDFADGADSITLSGHKFLGAPMPCGVVLSHKLHVQRVMRNIDYIGSSDTTLSGSRNAFTPIILWYAIRSLGIEGIKQTFQQCERLAAYTADELNVRGVSAWRNPNALTVVLPPVEDSIKTKWQIATQDVSHLVVTPGTTKQQADALIETISNRNR
soluble on expression in E. coli: not soluble

MQGLTMDDISLSIARNMFHLQVYESDGVRFEDLFSKIMYYKSPDFQQVKPYGNIGDRKNDGFIKGQGVYYQVYAPEDASNNVLAAVNKIKDDFEGLRDYWHDICPIKKYYFVLNDKYKGSLPQLHKELIVLQSDFNLIDTGVIVAKDLERELFNLPDDMIRSVVGHLPDIDHEEYMFVSGFTCFISAWINFEKIARHKVFSAKQPNRPLFIGKVVNALVKNKIISRQDATFIKKITEVRNSLVHGVSMLVPKKNEIDMLIFITEKIKPAGVCRLD
soluble on expression in E. coli: not soluble

MVINQTFLQNNVMDKCNDKRKRGERDWDCPAEKDICISDRRYQLCMKELTNLVNNTRTHSHNDITFLKLNLKRKLMYDAAVEGDLLLKKNNYQYNKEFCKDIRWGLGDFGDIIMGTNMEGIGYSQVVENNLRSIFGTDEKAKQDRKQWWNESKEHIWRAMMFSLRSRLKEKFVWICKKDVTLKVEPQIYRWIREWGRDYMSELPKEQGKLNEKCASKLYYNNMAICMLPLCHDACKSYDQWITRKKKQWDVLSTKFSSVKKTQKIGTENIATAYDILKQELNGFKEATFENEINKRDNLYNHLCPCVVEEARKNTQENVKNVGSGVESKAASSNPITE
soluble on expression in E. coli: soluble

MDADMDYERPNVETIKCVVVGDNAVGKTRLICARACNTTLTQYQLLATHVPTVWAIDQYRVCQEVLERSRDVVDEVSVSLRLWDTFGDHHKDRRFAYGRSDVVVLCFSIANPNSLNHVKSMWYPEIKHFCPRTPVILVGCQLDLRYADLEAVNRARRPLARPIKRGDILPPEKGREVAKELGLPYYETSVFDQFGIKDVFDNAIRAALISRRHLQFWKSHLKKVQKPLLQAPFLPPKAPPPVIKIPECPSMGTNEAACLLDNPLCADVLFILQDQEHIFAHRIYLATSSSKFYDLFLMECEESPNGSEGACEKEKQSRDFQGRILSVDPEEEREEGPPRIPQADQWKSSNKSLVEALGLEAEGAVPETQTLTGWSKGFIGMHREMQVNPISKRMGPMTVVRMDASVQPGPFRTLLQFLYTGQLDEKEKDLVGLAQIAEVLEMFDLRMMVENIMNKEAFMNQEITKAFHVRKANRIKECLSKGTFSDVTFKLDDGAISAHKPLLICSCEWMAAMFGGSFVESANSEVYLPNINKISMQAVLDYLYTKQLSPNLDLDPLELIALANRFCLPHLVALAEQHAVQELTKAATSGVGIDGEVLSYLELAQFHNAHQLAAWCLHHICTNYNSVCSKFRKEIKSKSADNQEYFERHRWPPVWYLKEEDHYQRVKREREKEDIALNKHRSRRKWCFWNSSPAVA
soluble on expression in E. coli: soluble

MITEKRHELILTELSKQDFLTLQELIERTGCSASTIRRDLSKLQKFGKLKRVHGGATLNQSSALEPNLADKRSTNLREKQEIGRLAASQIENRDCVFLDAGSTTLEMIPYIKASDIIVVTNGLTHVEELLKHGIRTLIIGGEVKSTTFATVGASALETLRRYRFDKVFLGMNGIDLKYGLTTPDEQEAIIKHHAMQLGTQVYVLIDHDKYEKVYFAHVPLEEGVSIITSKKAQSLKQFHLFAGQYNFIGGTLLEHHHHHH
soluble on expression in E. coli: soluble

MSLREAVLANLKKITDPVSGQDIVSAGIVRALNVEGDTVRFVIEIDPKLAERMEPVRAAAEKAAQMVEGVAKVSAMMTAHSDKAPPELKPRAKAAPQGPQPVAGVDRIVAVASGKGGVGKSTVSANLACALAAEGRRVGLLDADVYGPSQPRMLGVSGRPASPDGKTILPLRNHGVTMMSMGLMTNEGQAVVWRGPMLMGALQQMMNQVQWGGLDVLIVDLPPGTGDVQLTLSQKFAVDGAIIVSTPQDVALIDARKGIDMFRQLKTPILGMIENMSTHICSNCGHEEHVFGHGGVAAEAEKLGVPLLGEIPLHLDIRVAADGGAPIVVSKPDSPQAEAFRRIARDLIAKGQALEHHHHHH
soluble on expression in E. coli: soluble

MGSDKIHHHHHHMKKSERLNQELFFLRTHPQFNLNQLMKTFGISKSTALRDIEALENLGVPLYVENGRYGGYRVLNKPLLPPIYFNENEVLAIFFSLQLLKLVAESPFGHSYQQIKQKLLHSLDEPTQFKISQMSKVVYYEGIEQVEAPGNLEQLFHCILAQQVIQFNYTRYEATTKKILPTRLTILEGYWYCSGYDVTKKAWRTYRCDFMEAIQQLNQTLDFTTEELKESYRHQQTTARTIPFKAIITEKGKEFFYKHRFDNIQLEETPTQCFLVGQIHPTETQFLANYFMGFGEEVTILDPVQVKQAYVESIMRIQKKYQE
soluble on expression in E. coli: not soluble
